According to article PMC8824505, “Complexes of Ghrelin GHS-R1a, GHS-R1b, and Dopamine D1 Receptors Localized in the Ventral Tegmental Area as Main Mediators of the Dopaminergic Effects of Ghrelin” (The Journal of Neuroscience, 2022):

Target: dopamine D1 receptor (D1R) (UniProt P21728 1-446)
Experiment: cell-based or functional assay

Chain of dopamine D1 receptor (D1R) (P21728 whole entry): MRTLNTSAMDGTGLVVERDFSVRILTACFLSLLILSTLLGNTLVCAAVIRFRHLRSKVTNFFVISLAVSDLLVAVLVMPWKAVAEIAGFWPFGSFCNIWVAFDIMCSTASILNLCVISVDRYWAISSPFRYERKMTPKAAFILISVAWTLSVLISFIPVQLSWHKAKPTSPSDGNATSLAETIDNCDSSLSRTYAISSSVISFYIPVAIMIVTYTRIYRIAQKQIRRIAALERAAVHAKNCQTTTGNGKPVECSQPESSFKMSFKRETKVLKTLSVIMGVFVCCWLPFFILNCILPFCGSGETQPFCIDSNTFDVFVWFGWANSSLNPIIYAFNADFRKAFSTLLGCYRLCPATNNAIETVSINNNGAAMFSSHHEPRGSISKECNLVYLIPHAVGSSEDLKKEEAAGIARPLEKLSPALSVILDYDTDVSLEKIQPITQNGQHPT

ghrelin-induced cAMP accumulation in HEK293T cells with GHS-R1a, D1R and increasing GHS-R1b cDNA; increase versus control at GHS-R1b/GHS-R1a cDNA ratios of 0, 0.3, 1 and 2 (26%, 72%, 46% and 15%): 72 % increase versus control
B1: GHS-R1a fused to GFP2 (GHS-R1a-GFP2) (receptor, human, UniProt Q92847-1 1-366, looked up)
chain: MWNATPSEEPGFNLTLADLDWDASPGNDSLGDELLQLFPAPLLAGVTATCVALFVVGIAGNLLTMLVVSRFRELRTTTNLYLSSMAFSDLLIFLCMPLDLVRLWQYRPWNFGDLLCKLFQFVSESCTYATVLTITALSVERYFAICFPLRAKVVVTKGRVKLVIFVIWAVAFCSAGPIFVLVGVEHENGTDPWDTNECRPTEFAVRSGLLTVMVWVSSIFFFLPVFCLTVLYSLIGRKLWRRRRGDAVVGASLRDQNHKQTVKMLAVVVFAFILCWLPFHVGRYLFSKSFEPGSLEIAQISQYCNLVSFVLFYLSAAINPILYNIMSKKYRVAVFRLLGFEPFSQRKLSTLKDESSRAWTESSINT
